To fix the notation:
B1: GST-Nek9 810–828 (domain or fragment, human, UniProt Q8TD19 810-828, looked up)
chain: GWLRKELENAEFIPMPDSP
notes: source: E. coli, purified (glutathione sepharose)
B2: Nek7 N90K (enzyme)
chain: not shown
B3: Nek7 N90A (enzyme)
chain: not shown
B4: GST-Nek9-CTD (aa 726–979) (domain or fragment, human, UniProt Q8TD19 726-979, looked up)
chain: KVLNSKTIRSNSSGLSIGTVFQSSSPGGGGGGGGGEEEDSQQESETPDPSGGFRGTMEADRGMEGLISPTEAMGNSNGASSSCPGWLRKELENAEFIPMPDSPSPLSAAFSESEKDTLPYEELQGLKVASEAPLEHKPQVEASSPRLNPAVTCAGKGTPLTPPACACSSLQVEVERLQGLVLKCLAEQQKLQQENLQIFTQLQKLNKKLEGGQQVGMHSKGTQTAKEEMEMDPKPDLDSDSWCLLGTDSCRPSL
notes: Nek9, human, C-terminal domain, residues 726-979; For some kinase assays the GST tag was removed with 3C protease; also called Nek9 non-catalytic C-terminal domain; N9 CTD; source: E. coli, purified (glutathione sepharose); not shown: GST, N-terminal, kept
B5: Nek7 N90R (enzyme)
chain: not shown
B6: synthetic peptide corresponding to aa 810–828 of Nek9 (peptide, UniProt Q8TD19 810-828, looked up)
peptide: GWLRKELENAEFIPMPDSP
notes: source: synthetic peptide (Peptide Synthetics)

Data set [1] concerns the target T1, Nek7-His6, full-length wild type, unphosphorylated (human, UniProt Q8TDX7 1-302).
T1 construct: Nek7 (NIMA-related kinase 7), human, full length; also called Nek7^WT; unphosphorylated Nek7^WT; source: E. coli Codonplus RPIL, co-expressed with or without λ-phosphatase, purified (HisTRAP, Superdex-200); not shown: His6, C-terminal, kept
The experiment in a line: pull-down; GST co-precipitation: 100 μg GST-Nek9 protein immobilised on glutathione sepharose-4B beads, incubated with 100 μg Nek7 in 500 μl for 1 h at 4 °C; 50 mM HEPES pH 7.5, 300 mM NaCl, 5% glycerol, 5 mM dithiothreitol, 0.05% Tween-20; Coomassie staining or immunoblot with α-His6. The note with it: both partners purified.

Data set [2] concerns the molecule itself. Kind of data set: cell-based or functional assay.
The data set “Nek7 N90R” concerns the target B5. Kind of data set: pull-down; GST co-precipitation: 100 μg GST-Nek9 protein immobilised on glutathione sepharose-4B beads, incubated with 100 μg Nek7 in 500 μl for 1 h at 4 °C; 50 mM HEPES pH 7.5, 300 mM NaCl, 5% glycerol, 5 mM dithiothreitol, 0.05% Tween-20; Coomassie staining or immunoblot with α-His6. The note with it: both partners purified. For orientation: In western blotting, separated proteins are transferred to a membrane and probed.

The data set “Nek7 N90K” has as its target B2. The data set is described as above. Particulars: both partners purified.
The data set “Nek7 N90A” concerns the target B3. Described as above. Particulars: both partners purified.
For a further data set, the target named is T2, Nek7 K96E (human, UniProt Q8TDX7 1-302, K96E).
T2 construct: Nek7, human, full length; source: E. coli Codonplus RPIL, co-expressed with or without λ-phosphatase, purified (HisTRAP, Superdex-200)
Described as above. Particulars: both partners purified.

Data set [3] addresses T3, Nek7^Y97F, full length (human, UniProt Q8TDX7 1-302, Y97F).
T3 construct: Nek7, human, full length; residues 20-300 modelled in the structure; source: E. coli Codonplus RPIL, co-expressed with or without λ-phosphatase, purified (HisTRAP, Superdex-200)
The data set is described as above. Particulars: both partners purified.

The target of a further data set is T4, Nek7^Y97A, full length (human, UniProt Q8TDX7 1-302, Y97A).
T4 construct: Nek7, human, full length; source: E. coli Codonplus RPIL, co-expressed with or without λ-phosphatase, purified (HisTRAP, Superdex-200)
The data set is described as above. The note with it: both partners purified.

The target in a further data set is T5, phosphorylated Nek7^WT (human, UniProt Q8TDX7 1-302, phosphorylated (sites not stated for this preparation)).
T5 construct: Nek7, human, full length; also called phospho-Nek7^WT; source: E. coli Codonplus RPIL, co-expressed with or without λ-phosphatase, purified (HisTRAP, Superdex-200)
Described as above. The note with it: both partners purified.

The target of data set [4] is T3, Nek7^Y97F, full length. The experiment in a line: crystal structure; co-crystallisation by sitting drop vapour diffusion, Nek7^Y97F at 440 μM and Nek9 peptide at 880 μM; 0.2 M potassium thiocyanate, 0.1 M bis-Tris propane pH 7.5, 20% PEG 3350; 2.78 Å, space group P3_(1) 2 1. The note with it: both partners purified.

T3 sequence (Q8TDX7 whole entry Y97F, the tested form may be a part): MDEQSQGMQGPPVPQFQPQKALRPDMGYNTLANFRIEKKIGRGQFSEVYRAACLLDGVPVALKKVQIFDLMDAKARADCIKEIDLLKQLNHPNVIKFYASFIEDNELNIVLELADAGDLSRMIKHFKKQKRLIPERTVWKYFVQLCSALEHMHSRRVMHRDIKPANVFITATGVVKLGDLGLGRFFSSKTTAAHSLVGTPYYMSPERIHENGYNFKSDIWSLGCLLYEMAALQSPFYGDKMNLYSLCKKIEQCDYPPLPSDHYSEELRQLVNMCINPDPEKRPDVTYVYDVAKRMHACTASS
T1 sequence (Q8TDX7 whole entry): as the sequence (Q8TDX7 whole entry Y97F, the tested form may be a part) above, with F97Y counted along it
T5 sequence (Q8TDX7 whole entry): as the sequence (Q8TDX7 whole entry Y97F, the tested form may be a part) above, with F97Y counted along it
T4 sequence (Q8TDX7 whole entry Y97A): as the sequence (Q8TDX7 whole entry Y97F, the tested form may be a part) above, with F97A counted along it
T2 sequence (Q8TDX7 whole entry K96E): as the sequence (Q8TDX7 whole entry Y97F, the tested form may be a part) above, with K96E, F97Y counted along it
Sequence of Nek7 N90K (Q8TDX7 whole entry N90K): as the sequence (Q8TDX7 whole entry Y97F, the tested form may be a part) above, with N90K, F97Y counted along it
Sequence of Nek7 N90R (Q8TDX7 whole entry N90R): as the sequence (Q8TDX7 whole entry Y97F, the tested form may be a part) above, with N90R, F97Y counted along it
Sequence of Nek7 N90A (Q8TDX7 whole entry N90A): as the sequence (Q8TDX7 whole entry Y97F, the tested form may be a part) above, with N90A, F97Y counted along it

For the molecule B1, in data set [1], the binding result was “binds”.
B2: the “in vitro kinase activity of the initially unphosphorylated Nek7 mutant, in the presence or absence of Nek9-CTD, against WT (32P incorporation, scintillation counting)” value in data set [2] was at most 10 fold.
Regarding B3, the “fold decrease in in vitro kinase activity of the initially unphosphorylated Nek7 mutant, against WT (32P incorporation, scintillation counting)” value in data set [2] was about 2 fold.
On to B4, for which the binding result in data set [1] is recorded as “binds”; in the data set with Nek7 N90R, “binds”; with Nek7 N90K, “binds”; in the data set with Nek7 N90A it was “binds”; with Nek7 K96E it was “binds”; with Nek7^Y97F, full length [3], “binds”. The binding result is listed as “binds” with Nek7^Y97A, full length and “binds” with phosphorylated Nek7^WT.
Regarding B5, the “in vitro kinase activity of the initially unphosphorylated Nek7 mutant, in the presence or absence of Nek9-CTD, against WT (32P incorporation, scintillation counting)” value in data set [2] was at most 10 fold.
With B6, the binding result with Nek7^Y97F, full length [4] is recorded as “binds”.

For the origin of these results see PMC4632185, “Mechanistic basis of Nek7 activation through Nek9 binding and induced dimerization” (Nature Communications, 2015).
